Key:
[1] = Encapsulation efficiency of prednisolone phosphate in liposomes (HPLC); format: physicochemical; conditions: prednisolone phosphate-containing DPPC/cholesterol liposomes
[2] = Particle size and polydispersity of liposomes by dynamic light scattering; format: physicochemical; conditions: prednisolone phosphate-containing DPPC/cholesterol liposomes, light scattering (Malvern Zeta-sizer)
Procedure: The lipid loss during preparation of the liposomes was 25%, determined by comparing the final radioactivity of the preparation with the activity before the extrusion procedure. The suspension of liposomes was stored in a nitrogen atmosphere at 4° C.
Liposomes were prepared using the film method, as described in example 23. Instead of egg phosphatidylcholine dipalmitoyl phosphatidylcholine was used. 5 mM HEPES buffer was added to the dry lipid film and shaken during 5 minutes in the presence of glass beads in order to enable complete hydration of the lipid film. The liposomes were sized by extrusion 12 times through 2 stacked PC membranes having pore sizes of […]. The resulting liposome dispersions were dialysed (MWCO 10,000) and average particle sizes were determined using dynamic light scattering technique. See table 1 for the properties of the liposomal preparations.

[3] = Kinetics of 3H-labelled liposomes containing lipid-polymer-conjugates after a single intravenous injection to the rat (blood circulation time); format: in vivo; conditions: intravenous administration to rats, compared with corresponding PEG-grafted liposomes
Procedure: 100 μl was transferred to a scintillation vial (20 ml).
100 μl of Solvable was added. This was incubated for at least 1 hour.
100 μl of 1 mM EDTA and 200 μl H2O2 30% were added. This mixture was incubated for 24 hours at room temperature and overnight at 50° C. thereafter.
Ultima Gold (10 ml) was added as the scintillation fluid.
Radioactivity was measured by LSC.
The increase of blood circulation time was assessed, wherein: […]

[4] = Storage stability of liposomal preparations (percentage encapsulated prednisolone phosphate versus time); format: physicochemical; conditions: prednisolone phosphate-containing liposome suspensions, nitrogen atmosphere, 4° C. (FIG. 3)
Source text: FIG. 3 is a graphical representation of the percentage encapsulated prednisolone phosphate in PEG-DSPE and PHEA-DODASuc, respectively, containing liposomal preparations versus time (example 26).

Substance | Encapsulation efficiency of the prednisolone phosphate [1] | Mean particle size [2] | Blood circulation time of the liposomes [3] | Storage stability compared with PEG-DSPE reference liposomes [4]
PEG-distearoylphosphatidylethanol-amine [PEG-DSPE] | 2.6% | ~90 nm |  | 
PHEG-Diaminobutane DODASuc [Ex. 8.1] |  |  | Results similar to those obtained with the corresponding PEG-grafted liposomes | 
Poly(2-hydroxyethyl)-L-asparagine DODASuc [Ex. 14] |  |  | Results similar to those obtained with the corresponding PEG-grafted liposomes | performed slightly better
Poly(D,L-methionine Sulfoxide) DODASuc [Ex. 18] |  |  | Results similar to those obtained with the corresponding PEG-grafted liposomes | 
